Protease stability score data for 47 sequences are collected here from the NTF2 design screens of Basanta et al. (2020).

A short description of the data set: protease stability score; higher = more stable; yeast display proteolysis, trypsin and chymotrypsin.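 Also: relative to predicted unfolded state with 0 unfolded-like and 1 meaning tenfold more protease.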
As to “DEHEHVVERMARIQYKEMVTGDEELWYHLADPRVRYEIGDKEIIGREEVFRFIIEHKRDLGISKIDVRIRDIDLQGEWAIIDGTININGRKLETTIHLLVVDGRLKTFSLEIK”, the protease stability score was 1.33.
In turn, “DEHEKEWQELFRLAAHVLETGDEKMLQHLIDPSARTRINGKYTHGWEESARTLHEIRRRLGIDHEEITDHEIQGDKVIIHGRSQVGDKNFTVNIEWIIVNGRLKSVNFTIH” had a protease stability score of 0.55.
The sequence “DEHEKHDRELKRIWVELFETGDEDTLIELADPNPRSRVNGKEFHGMEDIVQFLREWKMRIKGVREEIHHVDVINGRVRIDMKRFVGDKEFDVTIHLYVINGRFKQEEVRVH” yielded a protease stability score of 0.222.
“DEHEKIIKHFLELFMWALRTGDEEINRHLVDPNVRVDVNGVILIGREEVVHYLRHLQEKLGMEIEEVRVEDMSVFDGRLHVDMRIHGRIGDKHTTIETHYLILKFDGRWILEHRRIR” gave a protease stability score of 2.37.
In turn, “DEHEMEIRDFIDKFLQSLRTGDEEKVHKLIDPHVRTQIDGQEFHGREEFLRFLRTHLERLGVDHIDVDLQQIEIVGEKINIHGTLTIEIDGRYLRHTFHLRVEKVNGKWIIESIRMT” showed a protease stability score of 2.15.
The sequence “DEHENVMHDAIENIEHMIHTGDEHISERLLDPNVKLDVNGRRFHGWEEFNKWLHHMGADVVDHKRLESQGDKVHTDGRVFFNGREYDSEINSLKVNGRWLITEVRIH” displayed a protease stability score of 0.337.
Consider “DEHEQEANEMMHRSLETLETGDERLLRHMADPNTKVQVGDKTWHGWHLLHEYRKEFRHARIIIREIDIQGEFVFLHGELDVNGKRLERTIIQLKVDGRWILHHMHLR”, for which the protease stability score is 0.435.
“DEHEQFLRDIAIILIHAHLTGDWKRLEEMLDPNVRFEIDINGRSIEQHGRELYLRWVRKIHNEIWFRIEIEDISVINGRASVKVRLDLNVGDKVLHTRIHIEVVVIDGVLRSESIRVR” registered a protease stability score of 2.69.
The sequence “DEHERDAHRFIEHLWRILATGDEEELRKLFDPDAKHHDENELYHGREKVTKFISHRFKHLGIDHVEFRLTDLEVQGDKVISRILVIQRVNGVEYRIDMLFIFHKINGRWLIKSLEVH” displayed a protease stability score of 1.36.
Sequence “DEHEREMHRLVDLLIKLLETGDEEISLRLADPHTRHDINGVHDHGRDKWEKSWEEHKKHLGWRIHYRIRDFRTQGDKARMEIQVDLHIGDKNIHLETHLLLISIDGVIKEIRIIIL” returned a protease stability score of 1.39.
Sequence “DEHERLAEIALRLYVHDIRTGDEHRLRKLFDPHVRFVIGDKVYHGWEEMKWILEHIRRELGVKHIKDEDSRHVHLQGDKMYTELRLHVNQGDYETELEVFMVSVKVNGQWLTHSFELR” returned a protease stability score of 1.21.
In turn, “DEHERLLIKIARIITNLLLTGDEDIMEELADPNVRFELDFNGVDIHLIGMDFWRHNLEHWWVDHFRLEDVKIQGDYAHLKLNVHMEINGRRHETHTRLSIVVVNGKLKSMRFHLI” displayed a protease stability score of 1.2.
Next, “DEHETDKQLAIDLLIEVIQTGDEHTTRRLADPNVKVVIDGREFHGRDFLARMIHEMRFHRIHVEEVRVIDGVVHSNLRVRGEYNGKHVDTRSSIHIKKVNGRWVIESVLIE”: 2.04; “DEHHEEIHRLVEIFLHLELTGDEDTWRELADPTAQIHIDGRDIHGMEDVLRVWEQFKKEMGIDHIRVKDYKVQGNFMHINTELEFNGRRVDSRIEIYIYDGRIKSVIIRYR”: 2.25; “DEHHEFSRTATEMWIHFMETGDEHDLRNLIDPNVKTKVGDKHHHGREFLVKWLLTFMERADHVEIRLNDIKLQGDKIHIEGRLIIIVGDKEIHIHVERDIIKVNGRWVVHSVIFR”: 1.21.
“DEHHEILDHFLHLWIEALHTGDWKLIEKLIDPHAKLRIHQGDKHIEIHGREEVVRREEEWLRRIKNLRLHIDRIEIQGNKFHMEITLHFDGVTVDSRVILFVYDGQIKHIEIRHN”: the protease stability score was 2.43.
The sequence “DEHHEILREASELFIKAWLTGDEDTMQEMMDPHTRVVFNGRTHHGWTFASEILERIKNIRIQIDDVRHQGEYVEIHFKLHIDGVRWNTKIHLHVIDGKLKRIQHTTE” displayed a protease stability score of 1.01.
Next, “DEHHEIVRSMSELLTHLHLTGDEEKLSRMADPRVRLDVNGQWFHGREQWEKAFEDFEREMGAKHVKVDHVHVQGNKIILHFHVNVDGVHITVEFDIIIVDGRLKREHIRLK”: 0.621; “DEHHERARKVAHLFMRIFETGDEDSMNELLDPNVRWVLIYGDKRFELHGWEELDKDIRRYDHHRLEMKHVEIQGNKADNDTRLRLRFDGKDIETETRLHIRVVDGVMKEVTFDIH”: 0.364.
“DEHHETLKRMTDQTLHVIHTGDEETWNQLADPNTLIRIIFENREINIHGWHLVVRWLQHLHRELRIEIDIRDIEIQGNKVHVEGELHVHQGEKEINIRIIFHFIVVNGRLRDVTIDFR” returned a protease stability score of 1.3.
For “DEHHEVAHRISTMLTHILMTGNEEWLSHLADPRVRSEIGDFEIHGREHMEELLHRILNKLGADHLRIHHIEIRIQGDFLIVKVHGRTHIGDKTVTHEIIFIIIKINGRWHLHSIWFDFE”, the protease stability score stood at 1.
The sequence “DEHHEVSEKVAKLFLEIWETGDWKTLKRLADPRVRTHIIIGDKTINEHGRENYIRSTVEFLERFPNMRYEIREVRVIGDKIETQGEMNVNGKTFDVIIELIIIDGRIKEVRVENR” yielded a protease stability score of 1.08.
As for “DEHHKHLHHLAEHTLRLIATGDEDRFSDLADPHTRLRVNGVDVIGRELVIELWKRMLEQIRITDVHVKRSVVIDGVVHQDTELHSTVGDKRFELKTKSHIFIINGRIHMVEIQHE”, the figure is -0.28; as for “DEHHKHVKEMLDLWRRNMETGDWDEIHKLADPHVRMIIFVGDKEIHSHGREEVHRVLEEWIRRMGVDHLVLHDVTLQGNKIIIDTQRNFDGRYLDTSEIIIVVNGRIKEVTFEEK”, 0.341; as for “DEHHKILTELMRDALRYEETGDWDETSKLLDPRTRLDFNGVEVIGREAYEHLLRFLGIKVFRETDMEVQGDKIKLNGRSNFNGRETEHYIYALKVDGRWILRSVEFK”, 1.3.
For the sequence “DEHHRLARDFWKMLADILKTGDEEIFRDLADPDTRMIQGDKLYHGRELISRELVRQVKEWRLHDFELHHIDEVNGRLLVDSRLVGHFDGRHYLMHVRIFMHKVDGRWVLHEMHYE”, the protease stability score was 1.38.
Take “DEHHRWLEQALHLWIHTILTGDEKVLHELFDPDVRLNVDGQDFHGRELMIKWFHDILRKFKNIRIKHIHIEDRRYYDGRLEIHTSVNVEFNGRPHEEKYRIIAFKIDGRWRLKEEEFH”: the protease stability score was determined as 1.8.
As for “DEHKDLAHKAITNFIEWTETGDFEMFLKLFDPNMRLRVDGQHHHGWHDVFRVFREMGYEIKSVKMDDVEIQGEKITVDLRVHVDINGQHEDIKTRYFFSKYDGKWIIEQIQVV”, the figure is -0.276; as for “DEHKEEFREWVERLEHVLKTGNEDELHELADPDVKVRIGDKEIHGMHEVLRFILEFYKKLGIDHRHLRIDDYRVQGDFLHIDGHLELTFNGRKHTHQLHIVVLKVNGRWILKEIRVS”, 2.25.
As to “DEHKEEIKKFIEEWERSMITGDEDRLWELADPNTRLRQGEFEIHGMEILIEAEHRIVEKYKGLTIESIEMKHIDIINGVVVLYSKIRVRQGDKETEIFIIIYIIKINGQWRLHSLEIR”, the protease stability score turned out to be 1.34.
For the sequence “DEHKEILREYAKKFLNDVMTGDEDEIEHLADPHARVEIGDKDIHGWEQWIKHLSRTWKELRIEDYRIRSIELVNGVVHLDTHLHIRIGDKRFDTQVEIHLVVINGKVKSVRVDIR”, the protease stability score turned out to be 1.12.
The sequence “DEHKELHERLLKMWLSIWETGDEERLRRNADPDTRFKHDFNGREETVVGRENVAKVLEDLRRELGIDHVHIRHFDVQGNYVDLTTELHFNGRIVNFHIIIRVVNGKLKEIHFELR” yielded a protease stability score of 1.26.
As for “DEHKEQLRRIFELMLHLFLTGDWKQLWELADPHARFRIDGRDIHGRDNFAEEVKRIVDEWRIHIDPRHIDVFDGVNHVRTDLFFEYDGRKLRHHTRVINIVVDGRLKEVEFRIE”, the protease stability score is 1.36.
The sequence “DEHKESLKRAFELWVETVKTGDEQRTEELIDPHVRVVIGDKEIHGMKETSRHILEMRVKSFRLRHYHFVNGRVNILGEIDGEFDGRRRDVDITIHIQKFNGRWLIDELHFG” showed a protease stability score of 2.27.
On to “DEHKHIAEEIARIVLENWMTGNEEIFKKMADPHVRVHINGKKSHGRDHYHELWRLLFEHIRIEHLHIRHMDKQGDFVRVEVEVTGHIDGRRETVESEFRIRTVNGVLRDVEIHFH”, for which the protease stability score was found to be 1.2.
Next, “DEHKKESKETAEIVMELRKTGDWDEFSRLADPNVKIDVDVNGKRINNIGWESFVEFVLKERDEWRLEDYKIRDIRVIDGVAEIDGEITGVFNGQREKREFRIIVVVVNGRLKSVQLKFK”: 1.29; “DEHKREMRILLQLWREFWLTGDWRNILKNADPDYRLTVNGRDFVGMELATEFLEIILRHLRVKHIILRHEELVDGVLHVEGEIDGNIDGKETIHENEINMFVYNGKIHEVELHLK”: 1.36; “DEHLEYVREIARLFWQLLSTGDEENLRKLFDPNARLDVNGQEFHGREEIIIFLRHWRMRSKDIRIHHVNVQGEKMEVDIHTDLEFEVGDFKYEEHTRVEIIVEKINGRWLVRHVKIR”: 0.437.
Sequence “DEHNKLAILIVEILWHLWETGNEEELVKLADPNYKHDVNGKISVGREEFEKTTHYLLNHLRFKHRHVRDEKVQGNKFHVDGQLNIDVNGREVRFDLRVVYIIVNGRLRSEHIDIV” gave a protease stability score of 1.71.
Regarding “DEHQEEIKEMFRRMIHALETGDEDFFNHLADPHVLFHEHFNGRSFELHGREEFSKWLQSHREEIRLRNVHYHDIRIYNGVVHFDGRIVWHQGDKTIDRKVHWRTFVIDGRAKKVEIHVK”, the protease stability score is 0.621.
“DEHQERIEEVLRDILEVLETGDWRKWHRLMDPHVLLIIFINGRKLSFHGMETVISHLQHEWRRVKGLQFELKHVELQGDYIHIDGHVRFNGQQTRIEIRIDIVDGKIHQLEFKFD” had a protease stability score of 1.53.
Next, “DEHQERNRRALEEMNRILDTGDWEELTELADPHVRIHYGEFNLHGREDAHRFWKHIVERFKGIRVNIHDVKMVGNYVDVDGHLEIGDKEHKVRIIAFKINGRWLLHSMHFV”: 1.38.
“DEHQKEIKEVVEMMRHAILTGDEETLERQMDPHAKIRINGVDYVGRRYLEILIRRVDHRRIHTRIRHVEIVDGRVITHLEERTVLHVGDKDIHVSHELEFVLLKIDGRWLVTEMIIQ” came in with a protease stability score of 1.23.
Consider “DEHQRMLELFMRLLMHSQETGDEKTLRELADPNARIHVGDKDYVGREHAAKLLVEWRIHDLELRTVDVQGDKIQWEGELEGEYNGKQDRYETYIIVTKIDGRWLEERVIFK”, for which the protease stability score worked out at 1.3.
Regarding “DEHREFAKHVLEALVRALETGDEDTIRELFDPNYRIEIGDKTVIGRKYWELFIRRVDHIEVHIIIRDFDVQGNKVIIRGDSHIHLNYDGRTLDIQHHVNFVIRKVDGKWVFHSEHFI”, the protease stability score worked out at 1.79.
As for “DEHREIARRHTEVWWKLLLTGDEHLLRELADPHVRLETEHEEVHGREEVVRFLTEEIMKVKNIRLELKRIEVQGDKIDVEGTRHIDGVTIRVILYIHKINGRWVVQQIQLD”, the figure is 1.29; as for “DEHRELEERMHELIQKANETGDWERWMELADPHTRLIVGDKEFHGMERSYEHILELFRRLGVERVEVRIERRDEQGEKINLDVIIIIGDKTIRLILIIYKVDGRWLLRSVEIR”, 1.63.
